Experimental data from publication PMC2756588.

T1: Cyk3, Q07533
T1 sequence (Q07533 1-83, looked up): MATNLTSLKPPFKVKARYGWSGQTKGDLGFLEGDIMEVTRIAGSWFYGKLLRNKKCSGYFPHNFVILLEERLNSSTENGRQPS

T2: Bud14, P27637
T2 sequence (P27637 247-328, looked up): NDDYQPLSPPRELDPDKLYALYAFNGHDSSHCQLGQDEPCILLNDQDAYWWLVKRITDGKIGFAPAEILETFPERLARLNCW

T3: Fus1, P11710
T3 sequence (P11710 432-512, looked up): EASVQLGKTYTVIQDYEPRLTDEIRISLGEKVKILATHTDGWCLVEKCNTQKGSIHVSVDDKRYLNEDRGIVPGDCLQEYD

T4: Hse1, P38753
T4 sequence (P38753 208-285, looked up): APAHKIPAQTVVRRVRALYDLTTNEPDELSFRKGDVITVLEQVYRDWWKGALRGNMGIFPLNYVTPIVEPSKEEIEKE

T5: Bbc1, P47068
T5 sequence (P47068 1-78, looked up): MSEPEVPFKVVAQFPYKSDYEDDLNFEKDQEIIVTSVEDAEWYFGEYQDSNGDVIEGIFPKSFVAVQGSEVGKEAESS

T6: Bzz1-2, P38822
T6 sequence (P38822 568-633, looked up): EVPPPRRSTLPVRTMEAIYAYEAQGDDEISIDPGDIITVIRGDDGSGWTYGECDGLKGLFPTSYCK

T7: Lsb4, P32793
T7 sequence (P32793 402-468, looked up): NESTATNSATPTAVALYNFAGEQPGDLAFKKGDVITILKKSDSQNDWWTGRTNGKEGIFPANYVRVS

T8: Sla1-2, P32790
T8 sequence (P32790 60-140, looked up): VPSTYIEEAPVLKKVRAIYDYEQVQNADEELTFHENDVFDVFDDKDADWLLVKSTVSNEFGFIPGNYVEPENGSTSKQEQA

T9: Sla1-3, P32790
T9 sequence (P32790 344-424, looked up): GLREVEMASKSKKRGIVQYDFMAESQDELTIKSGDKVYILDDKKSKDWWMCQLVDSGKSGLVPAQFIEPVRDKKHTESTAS

T10: Cdc25, P04821
T10 sequence (P04821 50-136, looked up): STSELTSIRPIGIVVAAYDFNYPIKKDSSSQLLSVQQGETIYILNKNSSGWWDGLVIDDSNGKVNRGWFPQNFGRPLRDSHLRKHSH

T11: Lsb1, P53281
T11 sequence (P53281 45-122, looked up): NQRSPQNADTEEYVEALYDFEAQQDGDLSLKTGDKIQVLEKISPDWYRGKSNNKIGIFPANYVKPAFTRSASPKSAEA

T12: Myo5, Q04439
T12 sequence (Q04439 1072-1160, looked up): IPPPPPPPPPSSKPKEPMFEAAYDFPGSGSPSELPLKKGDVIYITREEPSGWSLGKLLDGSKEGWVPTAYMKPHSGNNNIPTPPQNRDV

T13: Hof1, Q05080
T13 sequence (Q05080 590-669, looked up): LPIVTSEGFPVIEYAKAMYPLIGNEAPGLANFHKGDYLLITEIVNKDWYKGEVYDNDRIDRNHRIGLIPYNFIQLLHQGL

T14: Abp1, P15891
T14 sequence (P15891 535-592, looked up): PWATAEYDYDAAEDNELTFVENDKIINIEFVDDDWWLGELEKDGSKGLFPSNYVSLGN

T15: Boi2, P39969
T15 sequence (P39969 32-116, looked up): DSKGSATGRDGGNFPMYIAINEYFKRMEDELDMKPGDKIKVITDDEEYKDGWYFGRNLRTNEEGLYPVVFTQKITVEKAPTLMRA

T16: Lsb3, P43603
T16 sequence (P43603 385-451, looked up): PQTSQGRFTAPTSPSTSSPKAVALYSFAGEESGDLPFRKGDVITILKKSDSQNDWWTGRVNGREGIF

T17: Pex13, P80667
T17 sequence (P80667 295-386, looked up): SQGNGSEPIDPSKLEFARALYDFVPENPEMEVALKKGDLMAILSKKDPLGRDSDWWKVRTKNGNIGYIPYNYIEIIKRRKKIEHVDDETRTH

T18: Pin3, Q06449
T18 sequence (Q06449 53-122, looked up): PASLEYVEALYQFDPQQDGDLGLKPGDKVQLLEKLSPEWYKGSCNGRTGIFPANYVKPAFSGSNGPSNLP

T19: Bzz1-1, P38822
T19 sequence (P38822 478-572, looked up): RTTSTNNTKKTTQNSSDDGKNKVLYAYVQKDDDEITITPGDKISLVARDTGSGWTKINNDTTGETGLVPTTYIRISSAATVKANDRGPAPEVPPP

T20: Boi1, P38041
T20 sequence (P38041 1-86, looked up): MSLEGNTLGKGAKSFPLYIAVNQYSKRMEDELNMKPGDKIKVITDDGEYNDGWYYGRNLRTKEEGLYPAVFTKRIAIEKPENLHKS

T21: Nbp2, Q12163
T21 sequence (Q12163 103-180, looked up): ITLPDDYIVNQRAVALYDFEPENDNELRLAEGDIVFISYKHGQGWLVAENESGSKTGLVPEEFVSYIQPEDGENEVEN


Columns and labels:
Assay in all cases: SPOT array
Cyk3, Q07533 = target: T1, Cyk3, Q07533; settings: median of control spots 1451
Bud14, P27637 = target: T2, Bud14, P27637; settings: median of control spots 956
Fus1, P11710 = target: T3, Fus1, P11710; settings: median of control spots 1200
Hse1, P38753 = target: T4, Hse1, P38753; settings: median of control spots 1727
Bbc1, P47068 = target: T5, Bbc1, P47068; settings: median of control spots 796
Bzz1-2, P38822 = target: T6, Bzz1-2, P38822; settings: median of control spots 4538
Lsb4, P32793 = target: T7, Lsb4, P32793; settings: median of control spots 397
Rvs167, P39743 = settings: median of control spots 2707
Chain of Rvs167, P39743 (P39743 419-482): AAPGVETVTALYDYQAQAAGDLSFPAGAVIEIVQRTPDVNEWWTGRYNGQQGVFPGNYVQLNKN

Sla1-2, P32790 = target: T8, Sla1-2, P32790; settings: median of control spots 712
Sla1-3, P32790 = target: T9, Sla1-3, P32790; settings: median of control spots 5475
GST = settings: median of control spots 978
Cdc25, P04821 = target: T10, Cdc25, P04821; settings: median of control spots 969
Lsb1, P53281 = target: T11, Lsb1, P53281; settings: median of control spots 388
Myo5, Q04439 = target: T12, Myo5, Q04439; settings: median of control spots 471
Bem1-1, P29366 = settings: median of control spots 4282
Chain of Bem1-1, P29366 (P29366 55-141): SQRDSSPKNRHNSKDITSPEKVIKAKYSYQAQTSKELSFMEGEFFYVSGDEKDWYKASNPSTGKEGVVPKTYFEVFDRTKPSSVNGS

Sho1, P40073 = settings: median of control spots 1148
Chain of Sho1, P40073 (P40073 287-367): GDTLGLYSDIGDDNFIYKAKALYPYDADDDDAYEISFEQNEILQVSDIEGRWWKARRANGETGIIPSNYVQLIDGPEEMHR

Hof1, Q05080 = target: T13, Hof1, Q05080; settings: median of control spots 4086
Abp1, P15891 = target: T14, Abp1, P15891; settings: median of control spots 935
Myo3, P36006 = settings: median of control spots 468
Bem1-2, P29366 = settings: median of control spots 4347
Chain of Bem1-2, P29366 (P29366 139-227): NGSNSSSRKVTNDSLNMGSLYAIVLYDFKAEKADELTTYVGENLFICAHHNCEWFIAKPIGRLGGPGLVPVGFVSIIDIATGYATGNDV

Boi2, P39969 = target: T15, Boi2, P39969; settings: median of control spots 1161
Lsb3, P43603 = target: T16, Lsb3, P43603; settings: median of control spots 406
Pex13, P80667 = target: T17, Pex13, P80667; settings: median of control spots 1341
Pin3, Q06449 = target: T18, Pin3, Q06449; settings: median of control spots 2171
Bzz1-1, P38822 = target: T19, Bzz1-1, P38822; settings: median of control spots 4446
Boi1, P38041 = target: T20, Boi1, P38041; settings: median of control spots 1162
Nbp2, Q12163 = target: T21, Nbp2, Q12163; settings: median of control spots 357

| SPOT intensity (Cyk3, Q07533) | SPOT intensity (Bud14, P27637) | SPOT intensity (Fus1, P11710) | SPOT intensity (Hse1, P38753) | SPOT intensity (Bbc1, P47068) | SPOT intensity (Bzz1-2, P38822) | SPOT intensity (Lsb4, P32793) | SPOT intensity (Rvs167, P39743) | SPOT intensity (Sla1-2, P32790) | SPOT intensity (Sla1-3, P32790) | SPOT intensity (GST) | SPOT intensity (Cdc25, P04821) | SPOT intensity (Lsb1, P53281) | SPOT intensity (Myo5, Q04439) | SPOT intensity (Bem1-1, P29366) | SPOT intensity (Sho1, P40073) | SPOT intensity (Hof1, Q05080) | SPOT intensity (Abp1, P15891) | SPOT intensity (Myo3, P36006) | SPOT intensity (Bem1-2, P29366) | Binder | other results |
| --- | --- | --- | --- | --- | --- | --- | --- | --- | --- | --- | --- | --- | --- | --- | --- | --- | --- | --- | --- | --- | --- |
| 0 | 0 | 0 | 2 | 316 | 10 | 78 | 7 | 0 | 199 | 0 | 0 | 692 | 339 | 0 | 47 | 0 | 193 | 527 | 7700 | KFIPSRPAPKPPSSA | SPOT intensity (Boi2, P39969): 0; SPOT intensity (Lsb3, P43603): 41; SPOT intensity (Pex13, P80667): 221; SPOT intensity (Pin3, Q06449): 8; SPOT intensity (Bzz1-1, P38822): 0; SPOT intensity (Boi1, P38041): 0; SPOT intensity (Nbp2, Q12163): 2510 |
| 1 | 0 | 0 | 0 | 0 | 0 | 0 | 0 | 0 | 4 | 0 | 1 | 0 | 325 | 0 | 0 | 1 | 0 | 230 | 6 | LPPPPPPPPPPPLPQ | SPOT intensity (Boi2, P39969): 0; SPOT intensity (Lsb3, P43603): 0; SPOT intensity (Pex13, P80667): 3; SPOT intensity (Pin3, Q06449): 0; SPOT intensity (Bzz1-1, P38822): 3; SPOT intensity (Boi1, P38041): 1; SPOT intensity (Nbp2, Q12163): 0 |
| 3 | 0 | 1 | 1 | 121 | 0 | 21 | 1 | 0 | 29 | 0 | 0 | 493 | 447 | 2 | 0 | 0 | 54 | 575 | 2680 | IPSRPAPKPPSSASA | SPOT intensity (Boi2, P39969): 0; SPOT intensity (Lsb3, P43603): 10; SPOT intensity (Pex13, P80667): 873; SPOT intensity (Pin3, Q06449): 7; SPOT intensity (Bzz1-1, P38822): 6; SPOT intensity (Boi1, P38041): 0; SPOT intensity (Nbp2, Q12163): 1230 |
| 1 | 0 | 0 | 0 | 0 | 2 | 0 | 0 | 0 | 6 | 1 | 0 | 0 | 263 | 0 | 0 | 5 | 0 | 275 | 1 | PPPPPPPPPPLPQSL | SPOT intensity (Boi2, P39969): 0; SPOT intensity (Lsb3, P43603): 0; SPOT intensity (Pex13, P80667): 28; SPOT intensity (Pin3, Q06449): 0; SPOT intensity (Bzz1-1, P38822): 5; SPOT intensity (Boi1, P38041): 0; SPOT intensity (Nbp2, Q12163): 0 |
| 0 | 0 | 2 | 0 | 0 | 5 | 0 | 0 | 0 | 0 | 0 | 0 | 0 | 489 | 0 | 0 | 1 | 0 | 557 | 0 | PPPPPPPPPPPLPQS | SPOT intensity (Boi2, P39969): 0; SPOT intensity (Lsb3, P43603): 0; SPOT intensity (Pex13, P80667): 3; SPOT intensity (Pin3, Q06449): 0; SPOT intensity (Bzz1-1, P38822): 2; SPOT intensity (Boi1, P38041): 0; SPOT intensity (Nbp2, Q12163): 0 |
| 2 | 0 | 0 | 0 | 0 | 1 | 0 | 0 | 0 | 3 | 1 | 0 | 0 | 132 | 0 | 0 | 1 | 0 | 490 | 2 | AVPPPPPPPPLPESL | SPOT intensity (Boi2, P39969): 1; SPOT intensity (Lsb3, P43603): 0; SPOT intensity (Pex13, P80667): 12; SPOT intensity (Pin3, Q06449): 0; SPOT intensity (Bzz1-1, P38822): 0; SPOT intensity (Boi1, P38041): 0; SPOT intensity (Nbp2, Q12163): 1 |
